Laboratory results taken from the supplement of paper PMC10567573.

B1: CHCHD6 (parent)
chain: MYKLSSEQFHEAASKMESTIKPRR

Variants of: B1
Assay: protein stability index of a GFP-peptide fusion (GPS, HEK-293T) (PSI 1-6); higher = more stable
Conditions: c terminus: a fixed tail appended
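Note: lentivirally expressed fusions sorted by FACS into six bins by GFP to DsRed ratio, PSI derived from sequencing read proportions per bin multiplied by bin number.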

Protein stability index of substitutions, site by site:
R24: E 3.74; F 3.06; H 3.85; G 3.39; D 4.2; A 3.91; C 3.1
I20: K 4.05; C 4.01; Y 3.44; W 3.07; T 4.25; E 4.74; D 4.22; S 4.21; L 3.23; A 4.38; V 4.08; G 4.3; R 3.97; M 4.21; Q 3.82; F 3.51; N 3.56; P 4.56; H 3.95
S18: T 4.1; A 4.41; P 3.8; N 3.97; V 3.77; I 2.68; H 4.51; D 4.24; R 4.13; L 3.4; C 3.99; F 2.78; M 3.31; G 3.7; K 3.58; E 3.71; Q 3.47; Y 3.42; W 2.98
K21: Q 3.22; T 3.31; N 3.89; M 3.09; F 3; A 3.49; S 3.68; G 3.5; V 3.61; P 4.13; H 3.86; D 3.69; E 4.33; R 3.9; Y 2.33; I 3.44; C 4.22; L 3.04; W 2.48
K15: Y 3.5; Q 4.74; S 4.04; V 4.2; T 4.37; W 3.73; R 3.72; P 3.93
P22: V 3.6; H 3.91; M 3.86; D 4.26; K 3.8; W 2.58; G 3.56; Y 3; I 3.53; R 3.83; S 4.03; E 3.93; F 3; L 3.92; A 3.46; C 4.05; T 4.09; Q 3.86; N 3.46
T19: A 3.78; C 3.67; E 3.89; H 4.29; K 3.77; F 3.63; P 3.68; L 3.67; Q 4.09; I 3.12; R 3.88; Y 3.4; G 3.76; M 3.72; W 2.15; N 4; S 3.82; D 3.49; V 3.82
R23: A 3.99; Q 3.12; P 3.78; I 3.05; F 3; G 3.59; W 2.54; D 4.44; Y 3.44; N 3.4; K 4.11; H 3.96; M 3.65; E 4.14; T 3.31; L 2.91; S 3.7; C 3.48; V 3.16
E17: T 3.19; L 3.08; S 3.71; G 4.03; K 2.73; R 3.29; D 4; H 2.92; P 3.15; W 2.4; C 3.46; A 3.24; F 2.69; M 3.55; V 3.27; I 3.85; N 3.57; Q 3.71; Y 3
M16: I 3.53; T 4.34; K 4.31; D 4.09; Y 3.45; G 3.77; S 4.16; R 3.94; E 4.55; A 4.17; F 3.53; Q 4.47; H 4.44; L 3.41; P 4.31; N 4.17; C 3.58; V 4.46; W 3.41
